This is an account of results in publication PMC6355894, “Cryo-EM structure of the essential ribosome assembly AAA-ATPase Rix7” (Nature Communications, 2019).

Assay [1] addresses Chaetomium thermophilum Rix7 double Walker B mutant (CT Rix7 E303Q/E602Q) (Chaetomium thermophilum). As to the kind of experiment: cryo-EM structure; CT Rix7 E303Q/E602Q at ~0.6 mg/ml after SEC in Buffer A (20 mM Tris-HCl pH 8, 150 mM NaCl, 5 mM MgCl2, 0.5 mM DTT); no ATP and no substrate added; no symmetry imposed (C1); 4.5 Å.
A further assay addresses T1, CT Rix7 (Thermochaetoides thermophila, UniProt G0RZG1, E303Q/E602Q).
T1 construct: gene CTHT_0002840; full-length (NTD residues 1-192 not seen in map), codon-optimised, pET24b, C-terminal His6, expressed in E. coli BL21(DE3)*; asymmetric homohexamer
As to the kind of experiment: cryo-EM structure of the complex ([…] A). The following applies: co-purified nucleotide, no ATP added; 5 mM MgCl2, pH 8; nucleotide-binding pockets of D1 and D2 AAA domains; ATP geometry restrained to reference structure.

T1 sequence (G0RZG1 entry or part of it E303Q/E602Q): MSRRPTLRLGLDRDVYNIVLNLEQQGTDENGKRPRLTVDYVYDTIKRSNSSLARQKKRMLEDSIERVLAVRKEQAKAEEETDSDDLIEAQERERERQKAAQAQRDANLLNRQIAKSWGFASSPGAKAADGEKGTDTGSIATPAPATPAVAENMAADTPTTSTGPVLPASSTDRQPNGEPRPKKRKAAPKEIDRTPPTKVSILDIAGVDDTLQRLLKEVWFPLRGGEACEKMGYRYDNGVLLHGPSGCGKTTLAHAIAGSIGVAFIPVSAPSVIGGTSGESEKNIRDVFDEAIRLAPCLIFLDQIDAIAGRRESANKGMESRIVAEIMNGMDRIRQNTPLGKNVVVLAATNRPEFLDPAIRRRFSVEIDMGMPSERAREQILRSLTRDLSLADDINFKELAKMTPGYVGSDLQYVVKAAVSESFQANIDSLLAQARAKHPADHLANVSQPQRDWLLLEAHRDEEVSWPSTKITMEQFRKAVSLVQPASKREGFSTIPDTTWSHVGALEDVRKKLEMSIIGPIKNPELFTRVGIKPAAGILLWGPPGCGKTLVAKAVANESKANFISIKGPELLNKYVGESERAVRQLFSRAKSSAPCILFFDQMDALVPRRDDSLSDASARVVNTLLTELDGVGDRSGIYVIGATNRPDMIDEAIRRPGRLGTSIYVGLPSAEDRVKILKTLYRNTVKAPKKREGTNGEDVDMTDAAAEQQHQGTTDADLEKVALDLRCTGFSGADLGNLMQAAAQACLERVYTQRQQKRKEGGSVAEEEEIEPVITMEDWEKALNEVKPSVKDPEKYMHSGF

Consider “Chaetomium thermophilum Rix7 double Walker B mutant (CT Rix7 E303Q/E602Q) (enzyme)”, for which, in assay [1], the stoichiometry N (in general, a count of units in the complex or per binding partner) worked out at 6. In the case of `Nc1ncnc2c1ncn2[C@@H]1O[C@H](COP(=O)(O)OP(=O)(O)OP(=O)(O)O)[C@@H](O)[C@H]1O` [ATP], the “cryo-EM structure of the complex (4.5 A)” value at CT Rix7 is “In the D1 AAA domain, ATP is present in the nucleotide pockets of all six protomers”.
